Literature values in paper PMC6858539.
Like-named read-outs stand apart in the source and are kept apart here.

What was measured:
[1] = target: RodZ nascent chain on ribosome (RNC-RodZ) (Escherichia coli) (UniProt P27434)
[2] = target: RodZ nascent chain on ribosome (RNC-RodZ) (Escherichia coli) (UniProt P27434); remark: listed apart in the source

UniProt P27434, sequence (P27434 whole entry): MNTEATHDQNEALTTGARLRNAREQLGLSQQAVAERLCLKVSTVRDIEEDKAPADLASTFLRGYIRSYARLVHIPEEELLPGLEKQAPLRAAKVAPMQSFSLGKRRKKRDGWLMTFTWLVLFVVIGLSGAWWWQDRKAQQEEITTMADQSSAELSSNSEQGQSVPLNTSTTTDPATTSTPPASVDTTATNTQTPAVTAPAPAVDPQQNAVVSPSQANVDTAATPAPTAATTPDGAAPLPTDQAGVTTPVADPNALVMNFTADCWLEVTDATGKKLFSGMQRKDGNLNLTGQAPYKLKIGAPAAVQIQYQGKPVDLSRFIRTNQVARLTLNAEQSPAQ

Question: With SRP (from UniProt P0AGD7) as the substance, how does the Kd [1] read?
Answer: Its Kd is 24 nM.

Question: With SecA (from UniProt P10408) as the substance, how does the Kd [2] read?
Answer: Its Kd is less than 1 nM.
